Patent publication US20200283487A1 (UNIVERSITY OF SOUTHAMPTON, published 2020)

Target: T1, BSA (UniProt P02769 25-607)
T1 construct: Negative control analyte on the Biacore chip; also called BSA negative control
Assay: SPR (Biacore), rfhSP-A immobilised to ~700 RU, BSA as soluble analyte

T1 sequence (P02769 25-607 limits assumed): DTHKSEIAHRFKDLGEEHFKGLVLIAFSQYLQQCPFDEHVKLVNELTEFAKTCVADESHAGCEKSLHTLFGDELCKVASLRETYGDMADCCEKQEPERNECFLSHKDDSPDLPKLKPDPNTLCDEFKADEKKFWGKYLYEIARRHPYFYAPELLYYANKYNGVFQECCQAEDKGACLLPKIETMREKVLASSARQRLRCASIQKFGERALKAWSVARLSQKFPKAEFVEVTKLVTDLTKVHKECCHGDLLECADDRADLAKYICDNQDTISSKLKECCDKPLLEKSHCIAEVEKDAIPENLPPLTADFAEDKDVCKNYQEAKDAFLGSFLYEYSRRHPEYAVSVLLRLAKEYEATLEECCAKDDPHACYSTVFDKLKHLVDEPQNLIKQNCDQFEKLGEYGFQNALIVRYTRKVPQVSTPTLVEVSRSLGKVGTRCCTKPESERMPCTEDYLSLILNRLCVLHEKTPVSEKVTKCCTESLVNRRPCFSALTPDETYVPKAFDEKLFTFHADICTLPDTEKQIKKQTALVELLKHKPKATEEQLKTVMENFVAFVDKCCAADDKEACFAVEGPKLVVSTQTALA

B1: rfhSP-A (recombinant fragment of human surfactant protein A; truncated SP-A polypeptide) (other)
chain: not shown
notes: C-type lectin (collectin) fragment; also called rhfSP-A; trimeric rfhSP-A
Does B1 bind?
Result: no binding
